{"source": "the supplement of paper PMC9170038"}
{"tested_on": "K4 kissing-loop RNA reporter", "experiment": "apparent KD of K4 kissing-loop reporter; higher = weaker reporter binding", "settings": "Eterna round: R107; input ligand: arginine 13.2 mM", "procedure": "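RNA-MaP round R107: designed RNA switches with theophylline, tryptophan, arginine or FMN aptamers are transcribed on-chip within common flanks. They are titrated with a labelled K4 kissing-loop RNA reporter in RNA-MaP buffer (100 mM Tris pH 7.5, 80 mM KCl, 4 mM MgCl2), without ligand or with the indicated ligand. Median apparent KD per design.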", "units": {"apparent KD of K4 kissing-loop reporter": "nM"}}
{"sequence": "CGAGUCCUGAGGAGUGAUGUUCCUCGGCCACGAGGACCGGUACGGCCGCCACUCGUUACUCGGGCUUAGUAGCUAGCACUAAGCU [Quedmaon]", "apparent KD of K4 kissing-loop reporter": 171}
{"sequence": "GGAGUUACCUGGGAUACCAGUCGGAGUCUCAGAGCUCGGAGUGAUGUUCUGGGAUGUUUCGGCCCUUGGCAGCUCUGGGACUCCA [#2 Exclusion - Theophylline B Attempt #16 (HarryS)]", "apparent KD of K4 kissing-loop reporter": 627}
{"sequence": "AGCCUUACAUCGGCCGCCACUUCCCUGGCAGUGAUGUUGCCGUAGACAAUCAUUCUACCCUGGAGAAGGACCGGGAUGCAGAAAC [theeternabot_sameState_KL_Trp_B_8]", "apparent KD of K4 kissing-loop reporter": 185}
{"sequence": "UUUGGAGUGGGAGGAUAUCCUAAUAUGGGUGAUGUUAGCGAUGUUGAAGGUGUAGUGAUGUUAUGCGGAGAAGGCCCACUGUAGA [BDazzled - #19 - Exc. FMN B]", "apparent KD of K4 kissing-loop reporter": 78.8}
{"sequence": "AGAUGGAAUAGAAGGAGCGGCGCCAGUGAUGUUGGAUGCCGCGGGUGAAUCAGAUCAUAGUGCCAGGUAGGUCGCUAUUUCAGCG [Anedin]", "apparent KD of K4 kissing-loop reporter": 101}
{"sequence": "AAAAUAAAUAGCAGUCAUGGAGUGAUGUUCCGAGGACCGGUACGGCCGCCACUCGACCAUCAUAAGAUGGAAUGGCGAGACUGCA [#SwitchBubble 22 #K4Early]", "apparent KD of K4 kissing-loop reporter": 288}
{"sequence": "UGGAGUUGACGAAAAGUCAACUCCUGGGAAGGAGCGGACGAAAGUCCAGGUAGGUCGCCCACUACCAGUGAUGUUGGUACUCAAA", "apparent KD of K4 kissing-loop reporter": 196}
{"sequence": "UGGAGUUGACGAAAAGUCAACUCCUGAGAUACCAGUGACGAAAGUCACCCUUGGCAGCUCACUGGCAGUGAUGUUGCGCGAUAAA [#23 K4 Theophylline A Same State]", "apparent KD of K4 kissing-loop reporter": 288}
{"sequence": "GCCGUACGCAUGGAUACCAGUCUACAUCGCAGUGAUGUUGCGUAGUUCAGAUAGAUUGCCGACCCUUGGCAGCCAUGCGUACGGC", "apparent KD of K4 kissing-loop reporter": 109}
{"sequence": "AGAACUGUCUUGGAUACCAGUGAUGUUGGUAUCGAUGUGUGAGUGCAAAGCGUCCCACAUCGCCCUUGGCAGCUAAGACUGUUCA [Omei KL Theo B Exc A v4]", "apparent KD of K4 kissing-loop reporter": 238}
{"sequence": "GAUGAACUAUUCGAUACCAGACUACAUGAGUGAUGUUCAUGUGUGUCAAUGUCUAUGUCAGUCCCUUGGCAGCGAAUAGUUUAUC [KL-XTheo-B27]", "apparent KD of K4 kissing-loop reporter": 108}
{"sequence": "CGAGUGAUGUUCGUUUUUUACUCUUUUUGACAGGAUAUGCGGAAACGCAGAAGGGUCACCUUUGAGUUAAAAGGAGUUAUUUUUU [Ex FMN A 19]", "apparent KD of K4 kissing-loop reporter": 269}
{"sequence": "UCGUCUGUGUGAGGAUAUCCAAGCGAGCUGCGUACAGGUGCGGCGUUUGGAGUGAUGUUCCAGGCAGGAGAAGGCGCACGGGCUU [Esored]", "apparent KD of K4 kissing-loop reporter": 247}
{"sequence": "GAAUGGAGUGAUGUUCCAUUAACGAUCCUACGAGGACCGGUACGGCCGCCACUCGUAUUGCAGUGAUGUUGCAACCAGCCGUACU [Exclusion Tryptophan A GF 9]", "apparent KD of K4 kissing-loop reporter": 113}
{"sequence": "AUGCUUCAGUAAGGAUAUGGAGGCAGAGUGAAGAUUGUCGUGUAACCGAGUUAAGUGAUGUUUGAUCCAGAAGGUACAUGCGUGU [theeternabot_exclusion_KL_FMN_B_15]", "apparent KD of K4 kissing-loop reporter": 561}
{"sequence": "UGCGCUGUGUACUGUAAUGUUAUGCGGGAUACCAGAGUCUUUUUAUUCCCUUGGCAGCUUGAGUGAUGUUUGAUGCCGUUCUUGU [plpkmullin]", "apparent KD of K4 kissing-loop reporter": 327}
{"sequence": "GGUAUGGAAGCAACAUCACAAGCCGUACCACGAGGACCGGUACGGCCGCCACUCGAUAACUUGCAGUGAUGUUGCAAGUAAGAAU [(T)''-(K)'-(T)'-(T1)-(T2)-(K1)-(K2)_Design6]", "apparent KD of K4 kissing-loop reporter": 80.5}
{"sequence": "GGUUCUGGUUUGGAGUGAUGUUCUAAGUGGCAGGAUAUGGAGAGAUCCAGAAGGGCCGUUUGUAUCUUUUUUGUGUGGUUUUUUU [Last Minute #2]", "apparent KD of K4 kissing-loop reporter": 195}
{"sequence": "AAAUUUAAUAUAUUUAAUUAAUUAUGUGAUACCAGACAUUAAUAAGUCCCUUGGCAGCACAAUGCAGUGAUGUUGCUUAUAAUAA [JR_SSTheophyA_Sub010]", "apparent KD of K4 kissing-loop reporter": 117}
{"sequence": "AGAGUUAUAUGAGGAUAUGGGAUAGUAACUGAGUGAGUUAUAGUGUAGUUUGUUUAGUGAUGUUAUUUAGAAGGCGUGAGUGAUG [wwwsemullin]", "apparent KD of K4 kissing-loop reporter": 121}
{"sequence": "AUGUCGUUAUAGUGAGUGAUGUUCACUGUGCGAGGACCGGUACGGCCGCCACUCGAGAGUGGUGGACACUGAGUCACUCUGACAC [Tryp A Ex t2]", "apparent KD of K4 kissing-loop reporter": 123}
{"sequence": "UGGACCUGACUCGAUAAGAGUCAAUGAGAUACCAGCCACGAAAGUGGCCCUUGGCAGCUCUGCCAGUGAUGUUGGUCAAGGUCCU [#SwitchBubble 5 #StaticStem]", "apparent KD of K4 kissing-loop reporter": 889}
{"sequence": "GAAAUCACGGAUGAUACCAGCCAGAACUCUCACAGUGAUGUUGUGCUUAAAUGAUUAGGAGGCCCUUGGCAGCAUACGCUAAUUU [theeternabot_sameState_KL_Theo_B_36]", "apparent KD of K4 kissing-loop reporter": 267}
{"sequence": "CCUCACGUAGGACUAGUGAUGUUAGACUACCGAGGACCGGUACGGCCGCCACUCGUCGUACAAGAUAACCUUCCGCCAGUAUACA", "apparent KD of K4 kissing-loop reporter": 91.8}
{"sequence": "AGUCCACUCUAAAGAGUGGACCUAAGGGAUACCAGUGAUGUUGGUCACCCUUGGCAGCCCGCUGUCAUCGAUAAAGAUGGCAGUA", "apparent KD of K4 kissing-loop reporter": 107}
{"sequence": "AUUCGUCUCUGAGGAUAUCAGAGGAGAGUGAUGUUCUCCCAUAGCCCAGUGAUGUUGGAUGCUAUCUGAGAAGGCAGUGGGCGAA [Same State FMN B GF 14]", "apparent KD of K4 kissing-loop reporter": 203}
{"sequence": "AGGAUGUAGUGAUGUUAUAUAAAAGGUAAACGAGGACCGGUACGGCCGCCACUCGAAGCGGCUGCUAAGAGGGAAAGAAGAGGAA [ExTryptoA.E]", "apparent KD of K4 kissing-loop reporter": 464}
